Values belong to the binder of their own block, whether it stands above or below them.
Key:
[1] = biological target: FcγRIIIA on the effector cells of the ADCC reporter assay (UniProt P08637 17-254, limits assumed); assay: cell-based or functional assay
CD20 = biological target: T1, CD20 (UniProt P11836 1-297, limits assumed); assay: ELISA, target binding (FIG. 57)
T1 construct: also called the antigen (of Rituximab and Obinutuzumab)
T1 sequence (looked up): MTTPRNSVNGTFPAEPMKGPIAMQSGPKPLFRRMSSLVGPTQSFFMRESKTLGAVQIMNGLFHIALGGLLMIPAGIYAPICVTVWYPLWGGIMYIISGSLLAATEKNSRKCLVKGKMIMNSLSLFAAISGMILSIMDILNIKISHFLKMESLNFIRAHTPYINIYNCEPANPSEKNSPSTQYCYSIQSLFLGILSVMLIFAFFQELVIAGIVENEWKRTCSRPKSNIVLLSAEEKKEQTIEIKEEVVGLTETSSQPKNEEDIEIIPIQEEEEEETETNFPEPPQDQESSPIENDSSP

[2] = biological target: T2, Vascular Endothelial Growth Factor (VEGF-A) (UniProt P15692-4 27-191, limits assumed); assay: ELISA, target binding (FIG. 60)
T2 construct: also called the antigen (of Bevacizumab)
T2 sequence (P15692 other isoform, or with tags, fused parts or gaps limits assumed): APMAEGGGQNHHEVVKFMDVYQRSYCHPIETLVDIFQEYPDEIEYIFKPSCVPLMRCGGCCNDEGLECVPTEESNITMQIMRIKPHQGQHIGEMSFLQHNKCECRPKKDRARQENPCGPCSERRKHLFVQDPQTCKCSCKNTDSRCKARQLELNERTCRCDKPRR

FcγRIIIA on the effector cells of the ADCC reporter assay, sequence (P08637 17-254 limits assumed): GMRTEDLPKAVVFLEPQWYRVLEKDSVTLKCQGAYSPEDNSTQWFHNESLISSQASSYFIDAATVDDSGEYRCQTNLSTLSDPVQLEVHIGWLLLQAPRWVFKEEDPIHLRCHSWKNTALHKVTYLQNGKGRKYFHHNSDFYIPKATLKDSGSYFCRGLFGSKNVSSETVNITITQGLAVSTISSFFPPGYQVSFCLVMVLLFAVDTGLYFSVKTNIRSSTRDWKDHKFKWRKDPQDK

ADCC EC50 (M), ADCC Reporter Bioassay [1]: 1.76e-10 M
EC50 (CD20): 0.77 nM
B1: Rituximab population of the present disclosure (Biobetter), produced by SAII A3 Fut8 KO cells (antibody, human IgG1, kappa)
heavy: not shown
light: QIVLSQSPAILSASPGEKVTMTCRASSSVSYIHWFQQKPGSSPKPWIYATSNLASGVPVRFSGSGSGTSYSLTISRVEAEDAATYYCQQWTSNPPTFGGGTKLEIKRTVAAPSVFIFPPSDEQLKSGTASVVCLLNNFYPREAKVQWKVDNALQSGNSQESVTEQDSKDSTYSLSSTLTLSKADYEKHKVYACEVTHQGLSSPVTKSFNRGEC
modifications: N-glycan on the heavy chain: around 83.4% SCT glycans, no core fucose
notes: also called glycoengineered MabThera protein population

EC50 [2]: 0.377 nM
B2: Bevacizumab population of the present disclosure (Biobetter), produced by SAII A3 cells (antibody, V domains shown)
VH: EVQLVESGGGLVQPGGSLRLSCAASGYTFTNYGMNWVRQAPGKGLEWVGWINTYTGEPTYAADFKRRFTFSLDTSKSTAYLQMNSLRAEDTAVYYCAKYPHYYGSSHWYFDVWGQGTLVTVSS
VL: DIQMTQSPSSLSASVGDRVTITCSASQDISNYLNWYQQKPGKAPKVLIYFTSSLHSGVPSRFSGSGSGTDFTLTISSLQPEDFATYYCQQYSTVPWTFGQGTKVEIKR
modifications: N-glycan on the heavy chain: around 82.6% SCT glycans, mostly with core fucose
notes: also called glycoengineered Avastin protein population

From patent publication US20250333517A1 (ROCK BIOMEDICAL, published 2025)
